Laboratory results from patent US20240117402A1, “METHODS FOR (POLY) PEPTIDE TANDEM LIGATION AND CYCLIZATION” (Nanyang Technological University, priority 2021, published 2024).
Where no end group is shown, it is not given here.

T1: Peptide 1 (SEQ ID NO:7), Ac-KKLAVINHV
T1 chain: KKLAVINHV

T2: Peptide 21e (SEQ ID NO:19), GISTKSIPPISYRDSL
T2 chain: GISTKSIPPISYRDSL

T3: Peptide 21j (SEQ ID NO:24), GISTKSIPPISYRNGL
T3 chain: GISTKSIPPISYRNGL

T4: Peptide 5 (SEQ ID NO:10), GFGGIKA
T4 chain: GFGGIKA

T5: Peptide 7 (SEQ ID NO:11), Ac-KKLAVINGF
T5 chain: KKLAVINGF

B1: VyPAL2 (asparaginyl ligase, active form, SEQ ID NO:1) (protein)
chain: DSIGTRWAVLIAGSKGYHNYRHQADVCHMYQILRKGGVKDENIIVFMYDDIAYNESNPFPGIIINKPGGENVYKGVPKDYTGEDINNVNFLAAILGNKSAIIGGSGKVLDTSPNDHIFIYYADHGAPGKIGMPSKPYLYADDLVDTLKQKAATGTYKSMVFYVEACNAGSMFEGLLPEGTNIYAMAASNSTEGSWITYCPGTPDFPPEFDVCLGDLWSITFLEDCDAHNLRTETVHQQFELVKKKIAYASTVSQYGDIPISKDSLSVYM
B2: butelase-1 (asparaginyl ligase, active form, SEQ ID NO:2) (protein)
chain: VEGTRWAVLVAGSKGYVNYRHQADVCHAYQILKKGGLKDENIIVFMYDDIAYNESNPHPGVIINHPYGSDVYKGVPKDYVGEDINPPNFYAVLLANKSALTGTGSGKVLDSGPNDHVFIYYTDHGGAGVLGMPSKPYIAASDLNDVLKKKHASGTYKSIVFYVESCESGSMFDGLLPEDHNIYVMGASDTGESSWVTYCPLQHPSPPPEYDVCVGDLFSVAWLEDCDVHNLQTETFQQQYEVVKNKTIVALIEDGTHVVQYGDVGLSKQTLFVYMGTDPAN

How the values were obtained:
butelase-1 = assay: Butelase-1-catalyzed peptide cyclization (substrate screen, pH scan, kinetics); format: biochemical; details: 25 nM butelase-1, 5 μM peptide, pH 4.5, 25° C., 60 min
Protocol: FIG. 9. Screening of P1′-Asp peptides for cyclization by A) VyPAL2, B) butelase-1 and C) OaAEP1b. Quantitative summary of reaction yields of the reaction mixtures. For each reaction, 25 nM of the enzyme and 5 μM of the peptide substrate (21a-21i) were mixed and reacted at pH 4.5, 25° C. for 60 min. The positive control peptide 21j was performed at the same conditions except at pH 7.4. Average yields and SDs were calculated from experiments performed in triplicate. The amino acid sequence of the peptides used are set forth in SEQ ID Nos. 15-24.
FIG. 10. Ligation activity of three different ligases under different pH and substrate. Cyclization activity of A) VyPAL2, B) Butelase-1 or C) OaAEP1b towards substrate 21e-DSL and 21j-NGL; Fold difference was calculated using the cyclization rate of 21j-NGL divided by that of 21e-DSL. All the results were the average reaction rate at different pH in triplicate experiments based on MALDI-TOF analysis. Light grey text in the “Fold difference” axis marks to the maximum fold difference.
FIG. 11. Enzymatic activity of three different ligases on the cyclization reaction of P1-Asp peptide 21e-DSL or 21a-DGL and P1-Asn-peptide 21j-NGL. A) Scheme of PAL-mediated P1-Asp peptide cyclization; B) Enzymatic kinetics of VyPAL2 in cyclizing 21e-DSL at pH 4.5; C) Enzymatic kinetics of VyPAL2 in cyclizing 21e-DSL at pH 7.0; D) Enzymatic kinetics of OaAEP1b in cyclizing 21a-DGL at pH 5.5; E) Enzymatic kinetics of Butelase-1 in cyclizing 21e-DSL at pH 4.5. F) Scheme of PAL-mediated cyclization of peptide 21j-NGL; G). Enzymatic kinetics of butelase-1 in cyclizing […] at pH 4.5; H)
Enzymatic kinetics of VyPAL2 in cyclizing 21j-NSL at pH 4.5; I) Enzymatic kinetics of butelase-1 in cyclizing 21j-NSL at pH 7.4; J) Enzymatic kinetics of OaAEP1b in cyclizing 21j-NSL at pH 7.0. Sequences of peptides used are set forth in SEQ ID Nos. 15, 19, 24.
PALs recognize a tripeptide motif Asx-P1′-P2′ in the acyl donor substrate for their catalyzed ligation reactions. Because the formation of the acyl-enzyme thioester intermediate is the rate-limiting step, the leaving group P1′-P2′ also plays an important role in determining the catalytic kinetics of a particular 40 PAL-mediated reaction. Previous studies have determined Leu as a preferred P2′ residue. To identify the most favorable P1′ residues for PAL-catalyzed Asp-ligation, a panel of peptides (peptide 21a-21j) with C-terminal DXL and N-terminal GI motifs was synthesized and cyclization reactions performed. Peptide 21j with a C-terminal NGL, a P1-Asn peptide favored by VyPAL2, was used for comparison with the P1-Asp peptides 21a-21i. […] Meanwhile, the P1′ substrate specificities of the two other ligases - Butelase-1 and OaAEP1b - were also evaluated by using the same substrates 21a-21j.
A pH scan experiment with the other two ligases: butelase-1 and OaAEP1 b, for their cyclase activity on 21e and 21j was also conducted. […] In fact, the difference in reaction efficiency between 21j and 21e was about 950 times at pH 7.4 (FIG. 10). […] This makes VyPAL2 a more efficient ligase than butelase-1 for Asp-mediated protein modification.

[1] = target: T1, Peptide 1 (SEQ ID NO:7), Ac-KKLAVINHV
[2] = target: T2, Peptide 21e (SEQ ID NO:19), …
[3] = target: T3, Peptide 21j (SEQ ID NO:24), …
[4] = target: T4, Peptide 5 (SEQ ID NO:10), GFGGIKA
[5] = target: T5, Peptide 7 (SEQ ID NO:11), Ac-KKLAVINGF

| Molecule | substrate preference among P1-Asp peptides (butelase-1) | Km, intermolecular ligation of peptide 1 (varied) with nucleophile peptide 2 [1] | kcat, intermolecular ligation of peptide 1 (varied) with nucleophile peptide 2 [1] | kcat/Km, intermolecular ligation of peptide 1 (varied) with nucleophile peptide 2 [1] | Km, cyclization at pH 4.5 [2] | kcat, cyclization at pH 4.5 [2] | kcat/Km, cyclization at pH 4.5 [2] | Km, cyclization at pH 4.5 [3] | Km, cyclization at pH 7.4 [3] | kcat, cyclization at pH 4.5 [3] | kcat, cyclization at pH 7.4 [3] | kcat/Km, cyclization at pH 4.5 [3] | kcat/Km, cyclization at pH 7.4 [3] | Km, intermolecular ligation of GF-peptide 5 (varied) with acyl substrate peptide 4 [4] | kcat, intermolecular ligation of GF-peptide 5 (varied) with acyl substrate peptide 4 [4] | kcat/Km, intermolecular ligation of GF-peptide 5 (varied) with acyl substrate peptide 4 [4] | Km, intermolecular ligation of peptide 7 (varied) with nucleophile peptide 2 [5] | kcat, intermolecular ligation of peptide 7 (varied) with nucleophile peptide 2 [5] | kcat/Km, intermolecular ligation of peptide 7 (varied) with nucleophile peptide 2 [5] | also measured |
| --- | --- | --- | --- | --- | --- | --- | --- | --- | --- | --- | --- | --- | --- | --- | --- | --- | --- | --- | --- | --- |
| GISTKSIPPISYRDRL (GISTKSIPPISYRDRL-NH2) [Peptide 21f] | least favored P1-Asp substrate | – | – | – | – | – | – | – | – | – | – | – | – | – | – | – | – | – | – | – |
| GISTKSIPPISYRDLL (GISTKSIPPISYRDLL-NH2) [Peptide 21d] | slight preference | – | – | – | – | – | – | – | – | – | – | – | – | – | – | – | – | – | – | – |
| GISTKSIPPISYRDKL (GISTKSIPPISYRDKL-NH2) [Peptide 21g] | slight preference | – | – | – | – | – | – | – | – | – | – | – | – | – | – | – | – | – | – | – |
| B1 | – | 182 µM | 0.17 S^-1 | 932 M^-1S^-1 | 25.6 µM | 0.28 s⁻¹ | 10900 ± 195 M^-1s^-1 | 28.4 µM | 25.8 µM | 1.9 s⁻¹ | 5.5 s⁻¹ | 67000 ± 3230 M^-1s^-1 | 214000 ± 3900 M^-1s^-1 | 424 µM | 8.29 S^-1 | 19600 M^-1S^-1 | 155 µM | 1.1 S^-1 | 7220 M^-1S^-1 | Km, cyclization at pH 7.0 [2]: 42.3 µM; Vmax, cyclization at pH 7.4 [2]: with Vmax of 0.004 and 5.633 µM/min respectively; kcat, cyclization at pH 7.0 [2]: 0.021 s⁻¹; kcat/Km, cyclization at pH 7.0 [2]: 752 M^-1s^-1; kcat/Km, cyclization at pH 7.0 (value in running text, differs from Table 2) [2]: kcat/Km as ˜847±123 M -1 5 1; Vmax, cyclization at pH 7.4 [3]: with Vmax of 0.004 and 5.633 µM/min respectively |
| B2 | – | 85 µM | 1.47 S^-1 | 17300 M^-1S^-1 | 16.6 µM | 0.11 s⁻¹ | 7210 ± 489 M^-1s^-1 | 12.7 µM | 13.5 µM | 0.6 s⁻¹ | 9.4 s⁻¹ | 47100 ± 3740 M^-1s^-1 | 714200 ± 5390 M^-1s^-1 | 365 µM | 1.55 S^-1 | 4260 M^-1S^-1 | 175 µM | 0.46 S^-1 | 2650 M^-1S^-1 | – |
